T1: human IL2Rα (human, UniProt P01589 22-213, limits assumed)
T1 construct: also called IL2α; CD25
T1 sequence (looked up): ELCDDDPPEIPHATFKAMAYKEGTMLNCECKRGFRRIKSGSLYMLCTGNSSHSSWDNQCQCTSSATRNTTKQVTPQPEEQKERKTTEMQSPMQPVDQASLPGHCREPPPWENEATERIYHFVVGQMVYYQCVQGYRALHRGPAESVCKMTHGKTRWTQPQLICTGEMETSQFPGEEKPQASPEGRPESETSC

T2: human IL2Rβ (human, UniProt P14784 27-239)
T2 construct: also called IL2β; CD122
T2 sequence (looked up): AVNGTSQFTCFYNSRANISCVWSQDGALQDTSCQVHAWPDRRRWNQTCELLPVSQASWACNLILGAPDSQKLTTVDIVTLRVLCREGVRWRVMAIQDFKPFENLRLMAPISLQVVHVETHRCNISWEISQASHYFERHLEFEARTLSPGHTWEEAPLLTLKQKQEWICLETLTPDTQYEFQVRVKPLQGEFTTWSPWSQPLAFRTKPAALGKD

T3: human IL2Rβ Fc fusion protein (human, UniProt P14784 27-239)
T3 construct: also called Recombinant Fc-tagged human IL2Rβ; not shown: Fc
T3 sequence (looked up): T2 sequence (looked up)

T4: human IL2Rα Fc fusion protein (human, UniProt P01589 22-213, limits assumed)
T4 construct: also called Recombinant Fc-tagged human IL2Rα; not shown: Fc
T4 sequence (looked up): T1 sequence (looked up)

B1: EP102 (ligand, not shown: small tags and cut ends)
chain: APTSSSTKKTQLQLEHLLLDLQMILNGINNYKNPDLTSMLAFKFYMPKKATELKHLQCLEEELKPLEEVLNLAQSKNFHLRPRDLISNINVIVLELKGSETTFMCEYADETATIVEFLNRWITFSQSIISTLT
B2: EP117 (ligand)
chain: B1 chain with D35K, S38Y, A41T, Y45S
B3: EP125 (ligand)
chain: B1 chain with D35K, S38N, A41T, Y45A
B4: EP100 (ligand)
chain: B1 chain with D35V, S38R, A41T, F42I
B5: EP101 (ligand)
chain: B1 chain with D35K, S38R, A41T, F42L, Y45P
B6: EP120 (ligand)
chain: B1 chain with D35K, S38V, A41T, Y45T
B7: EP110 (ligand)
chain: B1 chain with D35L, S38D, A41T, F42R, S125C
notes: not shown: His and Flag tags
B8: EP007 (ligand)
chain: APTSSSTKKTQLQLEHLLLDLQMILNGINNYKNPKLTRMLTFKFYMPKKATELKHLQCLEEELKPLEEVLNLAQSKNFHLKWGDAVSNARVLAGALKGSETTFMCEYADETATIVEFLNRWITFCQSIISTLT
notes: not shown: C-terminal Flag and 6xHis tags
B9: EP244 (ligand)
chain: B1 chain with D35K, S38R, A41T, P82A, S87D, N90R, V93I, L94Q, S125C
notes: not shown: His and Flag tags
B10: EP250 (ligand)
chain: B1 chain with D35K, S38R, A41T, R81T, L85A, N90R, V93I, L94Q, S125C
notes: not shown: His and Flag tags
B11: EP246 (ligand)
chain: B1 chain with D35K, S38R, A41T, P82A, L85A, S87D, V93I, L94Q, S125C
notes: not shown: His and Flag tags
B12: EP249 (ligand)
chain: B1 chain with D35K, S38R, A41T, R81T, S87D, N90R, V93I, L94Q, S125C
notes: not shown: His and Flag tags
B13: EP251 (ligand)
chain: B1 chain with D35K, S38R, A41T, R81T, L85A, S87D, V93I, L94Q, S125C
notes: not shown: His and Flag tags
B14: EP243 (ligand)
chain: B1 chain with D35K, S38R, A41T, L85A, S87D, N90R, V93I, L94Q, S125C
notes: not shown: His and Flag tags
B15: EP255 (ligand)
chain: B1 chain with D35K, S38R, A41T, R81T, P82A, S87D, V93I, L94Q, S125C
notes: not shown: His and Flag tags
B16: EP248 (ligand)
chain: B1 chain with D35K, S38R, A41T, P82A, L85A, S87D, N90R, V93I, S125C
notes: not shown: His and Flag tags
B17: EP245 (ligand)
chain: B1 chain with D35K, S38R, A41T, P82A, L85A, N90R, V93I, L94Q, S125C
notes: not shown: His and Flag tags
B18: EP254 (ligand)
chain: B1 chain with D35K, S38R, A41T, R81T, P82A, N90R, V93I, L94Q, S125C
notes: not shown: His and Flag tags
B19: EP262 (ligand)
chain: B1 chain with D35K, S38R, A41T, R81T, P82A, L85A, S87D, V93I, S125C
notes: not shown: His and Flag tags
B20: EP256 (ligand)
chain: B1 chain with D35K, S38R, A41T, R81T, P82A, S87D, N90R, L94Q, S125C
notes: not shown: His and Flag tags
B21: EP261 (ligand)
chain: B1 chain with D35K, S38R, A41T, R81T, P82A, L85A, S87D, L94Q, S125C
notes: not shown: His and Flag tags
B22: EP257 (ligand)
chain: B1 chain with D35K, S38R, A41T, R81T, P82A, S87D, N90R, V93I, S125C
notes: not shown: His and Flag tags
B23: EP347 (ligand)
chain: B1 chain with D35K, S38V, A41T, Y45S, R81T, L85A, S87D, N90R, L94Q, S125C
notes: not shown: His and Flag tags
B24: EP350 (ligand)
chain: B1 chain with D35K, S38R, A41T, F42A, R81T, P82A, L85A, V93I, L94Q, S125C
notes: not shown: His and Flag tags

The record followed here is US20230002466A1 (ELPIS BIOPHARMACEUTICALS, published 2023).

Numbering of substitutions follows the chain as printed.

A word on the Kd: it is the equilibrium constant for the complex coming apart. A higher Kd goes with a looser complex. What is called koff is a measure of how fast the partners let go of each other. A high value points to fast dissociation. As usually defined, the kon is a measure of how fast the partners come together. Read a low kon as slow association. As a reminder, the EC50 is the concentration that produces a half-maximal response. Higher therefore signals weaker potency.

The target of the first assay is T1, human IL2Rα. The experiment in a line: SPR, IL2Rα captured on Protein A chip, IL2 at 100 nM. The protocol:
The binding kinetics of IL2Rα-reduced binding clones to IL2Rα was assessed utilizing SPR technology with a Biacore T200, software version 2.0. For each cycle, 1 ug/mL of human IL2Rα was captured for 60 seconds at a flow rate of 10 uL/min on flow cell 2 in 1×HBSP buffer on a Protein A sensor chip. 100 nM of each HIS and Flag tag purified IL2 mutant was injected onto both the reference flow cell 1 and IL2Rα captured flow cell 2 for 150 seconds at a flow rate of 30 uL/min followed by washing for 300 seconds. The flow cells were then regenerated with Glycine pH 2.0 for 60 seconds at a flow rate of 30 uL/min. A HBSP+ buffer was included with each sample as a baseline control. The assay was set up in a 96-well format. The kinetics data was analyzed with Biacore T200 evaluation software 3.0. The specific binding response unit was derived from subtraction of binding to reference flow cell 1 from IL2Rα flow cell 2 and subtraction of buffer control. […] Relative response (RU) was determined for each IL2Rα-reduced binding clone (FIG. 4, Table 3).
In general terms: Surface plasmon resonance follows binding to a sensor surface in real time, without labels.
Consider B1, for which the “RU (at 100 nM)” value worked out at 2.7 RU and the “Relevant binding to WT IL2 (%)” value is 1.9%.

In the case of B2, the “RU (at 100 nM)” value came to 2.5 RU and the “Relevant binding to WT IL2 (%)” value stood at 1.76%.

In the case of B3, the “RU (at 100 nM)” value worked out at 6.1 RU and the “Relevant binding to WT IL2 (%)” value stood at 4.29%.

In the case of B4, the “RU (at 100 nM)” value is 1.7 RU and the “Relevant binding to WT IL2 (%)” value came out at 1.19%.

Turning to B5, the “RU (at 100 nM)” value worked out at 2.5 RU and the “Relevant binding to WT IL2 (%)” value was 1.76%.

Take B6: the “RU (at 100 nM)” value stood at 3.6 RU and the “Relevant binding to WT IL2 (%)” value worked out at 2.54%.

For B7, the “RU (at 100 nM)” value was 2.6 RU and the “Relevant binding to WT IL2 (%)” value turned out to be 1.83%.

A further assay concerns the target T2, human IL2Rβ. The experiment in a line: SPR, receptor captured on Protein A chip, E. coli-produced IL2. The protocol:
The assay was run with Biacore T200 control software version 2.0. For each cycle, 1 μg/mL of human IL2Rβ or IL2Rα was captured for 60 seconds at flow rate of 10 μL/min on flow cell 2 in 1×HBST buffer on Protein A sensor chip. Two-fold serial diluted HIS tag purified engineered IL2 mutant was injected onto both reference flow cell 1 and IL2Rβ or IL2Rα captured flow cell 2 for 150 seconds at flow rate of 30 μL/min followed by washing for 300 seconds. The flow cells were then regenerated with Glycine pH 2 for 40 seconds at a flow rate of 30 μL/mins. Eight concentration points from 0 to 100 nM were assayed for each IL2Rβ agonist clone 96-well plate format. The kinetics data was analyzed with Biacore T200 evaluation software 3000. The specific binding response unit was derived from subtraction of binding to reference flow cell 1 from target flow cell 2.
As for B8, the Kd stood at 0.37 nM, the koff worked out at 0.000263 s⁻¹, the kon came out at 709000 M⁻¹ s⁻¹ and the “relative activity IL2Rβ (KD: fold) against WT IL2” value was 11700 fold.

The next assay concerns the target T3, human IL2Rβ Fc fusion protein. The experiment in a line: ELISA, receptor-Fc coated, anti-Flag HRP. The protocol: (§1) Briefly, 384 well plate was immobilized with human IL2Rα and IL2Rβ Fc fusion proteins at a final concentration of 2 ug/mL in 1×PBS in total volume of 25 uL per well. The plate was incubated overnight at 4 C and blocked with 80 uL of superblock per well for 1 hour. […] Each dilution was added to IL2Rα or IL2Rβ wells in parallel in duplicates. The IL2 mutant binding was detected by adding 25 uL of anti-Flag HRP diluted at 1:5000 in 1×PBST. In between each step, the plate was washed three times with 1×PBST using a plate washer. The plate was then developed with 25 uL of TMB substrate for five minutes and stopped by adding 25 ul of 2N sulfuric acid. The plate was read at OD450 nm Biotek plate reader and the EC50 was analyzed with Prism 8.1 software to generate EC50 values (FIG. 15A for IL2Rα, and FIG. 15B for IL2Rβ, summarized in Table 9).
In general terms: In an ELISA, binding on a coated surface is turned into a signal by an enzyme label.
B9 yielded an EC50 of 2830 nM.

B10: the EC50 was determined as 23.4 nM.

For the molecule B11, the midpoint of the response, the EC50, lay at 269 nM.

B12: the EC50 worked out at 576 nM. This EC50 is about 2.1-fold higher than that of the molecule before.

B13 returned a concentration for a half-maximal effect (EC50) of 2.5 nM. Against the preceding molecule, the EC50 is about 230-fold lower.

The molecule B14 returned an EC50 of 217 nM.

In turn, B15 returned a concentration giving a half-maximal response (EC50) of 360 nM.

In the case of B16, the EC50 worked out at 188 nM.

Take B17: a half-maximal effect (EC50) was put at 123 nM. This EC50 is about 1.5-fold lower than that of the molecule before.

In the case of B18, the response was half-maximal at 556 nM (EC50).

On to B19, for which the EC50 is 53.2 nM.

As to B20, a half-maximal response (EC50) required 362 nM.

In the case of B21, the EC50 was 124 nM.

In the next assay the target is T4, human IL2Rα Fc fusion protein. The experiment in a line: ELISA, receptor-Fc coated, anti-Flag HRP. On the procedure:
as §1
The molecule B9 showed an EC50 of 10.2 nM.

As for B10, the EC50 was 13.2 nM. The EC50 values of the last two molecules are within 1.5-fold of each other.

B11 gave an EC50 of 7 nM.

B12 came in with an EC50 of 20.2 nM.

In the case of B13, the EC50 was found to be 16.8 nM.

B14 displayed an EC50 of 6.7 nM.

As to B15, it took 4.3 nM to reach a half-maximal effect (EC50).

Molecule B16 registered an EC50 of 13.4 nM.

As to B17, the EC50 stood at 4.8 nM.

For B22, the 50% effective concentration (EC50) was found to be 5.6 nM.

Take B18: the EC50 was 4.3 nM.

B19: the half-maximal effective concentration (EC50) came out at 32.1 nM.

In the case of B20, the 50% effective concentration (EC50) is 5.3 nM.

Molecule B21 came in with an EC50 of 2.9 nM.

The target in another assay is T3, human IL2Rβ Fc fusion protein. The experiment in a line: ELISA, Fc-tagged receptor coated, anti-HisTag-HRP. The protocol: Recombinant Fc-tagged human IL2Rα and IL2Rβ were added in 25 uL of 1×PBS to wells of 384-well plate and incubated overnight at 4° C. to coat the plates. Plates were washed three times with 0.05% Tween20/1×PBS. Plates were blocked with 100 uL of SuperBlock for 1 hr at RT and then washed 3 times with 0.05% Tween20/1×PBS. IL2 mutants were diluted in 0.05% Tween 20/1×PBS from 1000 nM to 0 nM and added to plates for 2 hrs at room temperature. Plates were then washed 6 times with 0.05% Tween20/1×PBS. Anti-HisTag-HRP was diluted 1:5000 in 0.05% Tween20/1×PBS and added to plates for 1 hr at RT. Plates were then washed 6 times with 0.05% Tween 20/1×PBS, and TMB was added to develop blue color. Reactions were stopped with 2N […] and light absorbance at 450 nm was read on a BioTek plate reader.
For B23, the EC50 worked out at 77.6 nM. That is a double-digit nanomolar value.

As to B24, a half-maximal response (EC50) required 39.9 nM.
